Laboratory results from patent US20180267027A1, “FLUORESCENT BIOSENSOR FOR […] ASSAY” (The Regents of the University of California, priority 2015, published 2018).
Where two headings read alike, the source gives them in different places.

Columns and labels:
[1] = target: T1, protein lysine MTase SET7/9 (Homo sapiens, UniProt Q8WTS6); test: Protein MTase SET7/9 inhibition assay read out with Aeh1-4 biosensor; type: biochemical
T1 construct: purchased New England Biolabs Inc (Ipswich, Mass.)
T1 sequence (Q8WTS6 1-366): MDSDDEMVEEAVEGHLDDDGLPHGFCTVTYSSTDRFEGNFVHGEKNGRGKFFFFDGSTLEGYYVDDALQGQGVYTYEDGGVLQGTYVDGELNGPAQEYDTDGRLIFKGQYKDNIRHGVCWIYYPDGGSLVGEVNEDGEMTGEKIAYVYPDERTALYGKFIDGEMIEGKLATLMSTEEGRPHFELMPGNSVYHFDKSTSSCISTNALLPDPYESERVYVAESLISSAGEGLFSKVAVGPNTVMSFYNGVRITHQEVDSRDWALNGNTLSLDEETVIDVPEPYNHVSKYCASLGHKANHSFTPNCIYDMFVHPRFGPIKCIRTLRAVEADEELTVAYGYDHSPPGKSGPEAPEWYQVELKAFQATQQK
Procedure: To initiate the enzyme reaction, 5 μL of H3 peptide substrate (N′-[…]-LAGGKKC-C′) (SEQ ID NO:132) was added to 5 μL of 2×enzyme reaction solution containing SET7/9, SAM, and NEB HMT buffer. Generally, final concentrations are 50 μM H3 peptide, 0.1 U/μL SET7/9, 25 μM SAM, and lx NEB HMT buffer (50 mM Tris, pH 9.0, 5 mM MgCl2, and 4 mM DTT). The reaction solution was incubated at 37° C. for 2 hours to allow the enzyme reaction to proceed.
For the kinetics assay, the reaction conditions are the same as described above except 0.05 U/μL SET7/9 was used, and the enzyme reaction was heat inactivated at different time points. For the inhibition assay, the reaction conditions are the same as described in kinetics assay except varied concentrations of sinefungin was added to the enzyme reaction solution, the reaction solution was incubated at 37° C. for 6 min (see FIG. 16), then heat inactivated by incubation at 65° C. for 15 min. For the inhibition assay shown in FIG. 17, the reaction conditions are the same as described above except 40 μM H3 peptide, 0.1 U/μL SET7/9, 40 μM SAM were used instead.
To initiate the fluorescent biosensor reaction, 10 μL of the enzyme reaction was added to 90 μL of biosensor reaction solution containing renatured RNA, DFHBI, and buffer. […] In vitro fluorescence assays were conducted as described above.

[2] = Photophysical properties and fluorescence quantum yields of DFHBI and RNA-DFHBI complexes; type: physicochemical; conditions: this work
Procedure: The absorbance was measured at 448 nm and the fluorescence emission spectra was measured with 448 nm excitation for three different concentrations of the Acridine Yellow standard. The absolute quantum yield of Acridine Yellow was taken to be 0.47 as reported by Olmsted, Journal of Physical Chemistry 1979, 83, 2581-2584. The refractive index (η) was taken as 1.36 for ethanol and 1.333 for water (E. Hecht, Optics (4th edition), 2001). UV absorbance and fluorescence spectra were recorded on a Shimadzu 2501 Spectrophotometer (Shimadzu) or a Quantamaster Master 4 L-format scanning spectrofluorometer (Photon Technologies International) equipped with an LPS-220B 75-W xenon lamp and power supply, A-1010B lamp housing with integrated igniter, switchable 814 photon counting/analog photomultiplier detection unit, and MD5020 motor driver.
Quantum yields for DFHBI or RNA-DFHBI complex were determined by measuring the apparent quantum yields (Φsample.app) as a function of increasing total RNA (Ctotal RNA) at a fixed concentration of total DFHBI (CDFHBI). […] The RNA was renatured in buffer at 70° C. for 3 min and cooled to ambient temperature for 5 min prior to addition to the reaction solution. The DFHBI concentration was fixed at 10 or 20 μM in different replicates. The apparent quantum yield is described using the following equation: […]
Then, the apparent quantum yield is related to the dissociation constant Kd and concentration of DFHBI by the following equation: […]
Thus, the dissociation constants Kd and the quantum yield (Φsample) of RNA-DFHBI complexes were determined by least squares fitting to the above equation in Graphpad Prism software.

[3] = literature value (Nawrocki et al.); cited from earlier work
E. coli BL21* cells = test: In vivo fluorescence of RNA aptamers by flow cytometry; type: cell-based; conditions: 100 μM DFHBI
Procedure: To compare the fluorescence of Spinach2 and cpSpinach2 in live cells, pET31b plasmids encoding the RNA aptamers in a tRNA scaffold were transformed into E. coli BL21* cells. Following IPTG induction of transcription, cells were incubated with DFHBI and fluorescence was quantitated by flow cytometry. The mean cellular fluorescence was measured as a function of increasing DFHBI concentration in the media, in order to determine the optimal conditions for aptamer fluorescence. Unexpectedly, full saturation of fluorescence was not observed, even when E. coli cells were incubated in media containing up to 800 μM DFHBI (FIG. 5). However, the non-specific fluorescence signal increased when DFHBI concentration exceeded 100 μM. Thus, to balance higher fluorescence activation and lower non-specific background, a concentration of 100 μM was adopted for further experiments. Under these conditions, cellular fluorescence activation for Spinach2 and cpSpinach2 was on average 34 and 22-fold over background, respectively (FIG. 6). Thus, cpSpinach2 is a functional alternative to Spinach2. Although it currently performs slightly poorer in terms of fluorescence activation in live cells, improvements are likely possible through directed mutagenesis for higher thermal stability, improved folding efficiency and less Mg^2+ dependency. […]

[4] = In vitro fluorescence assays of SAH biosensors (turn-on, ligand selectivity); type: biochemical; conditions: for fluorescence in the presence of ATP: 10 mM ATP; for fluorescence response to SAH at low magnesium: 3 mM magnesium; for fluorescence turn-on: 37° C., 10 mM Mg^2+
Procedure: Other conditions, including temperature, concentrations of MgCl2, DFHBI, ligand or RNA, were varied in different experiments and are indicated in the figures. The RNA was renatured in buffer at 70° C. for 3 min and cooled to ambient temperature for 5 min prior to addition to the reaction solution. DFHBI was added to a solution containing buffer and ligand, and then RNA was added at the end before fluorescence measurement. Binding reactions were performed in 100 μL volumes and were incubated at the indicated temperature in a Corning Costar 3915 96-well black plate until equilibrium was reached, which in some cases takes 30 to 60 minutes. The fluorescence emission was measured using a Molecular Devices SpectraMax Paradigm Multi-Mode detection platform plate reader (Sunnyvale, Calif.) with the following instrument parameters: 448 nm excitation, 506 nm emission.

[5] = Binding affinity analysis of SAH biosensors
Procedure: The SAH concentration (cSAH) was varied, and the fluorescence of the sample with DFHBI but no RNA was subtracted as background to determine relative fluorescence units. The ratio between the fraction of biosensor that is bound by SAH and the total SAH biosensor concentration is given as:
The dissociation constants Kd were determined by least squares fitting to the following equation in Graphpad Prism software: […]

[6] = test system: E. coli BL21* wild-type and ΔMTAN cells; test: Live cell detection of SAH accumulation, wild-type versus MTAN knockout, flow cytometry; type: cell-based; conditions: E. coli BL21* MTAN knockout strain 2
Procedure: A Targetron® Gene Knockout System (Sigma-Aldrich) was used to knock out the MTAN gene from E. coli BL21*, following manufacturer protocols.
Preparation of cell samples for flow cytometry was carried out by inoculating 2 mL of auto-induction media/Carb (F. Studier, Protein Expression and Purification 2005, 41, 207-234) with E. coli BL21* cells from colonies grown on an LB/Carb culture plate, containing pET31b plasmids encoding RNA aptamers. […] Cells were then grown aerobically overnight to saturation (0D600 varied from 5 to 10) and diluted to OD600˜0.01-0.05 in M9 minimal media (pH ˜6.0) with 100 μM DFHBI-1T. Cellular fluorescence was measured for 30,000 cells using a Life Technologies Attune N×T Acoustic Focusing Cytometer.

SET7/9 = target: T2, SET7/9 (Homo sapiens, UniProt Q8WTS6); test: High-throughput screening (HTS) assay of SET7/9 activity and inhibition, Z′ score; type: biochemical; conditions: 384-well plate, 16 replicates, 300 μM sinefungin
T2 construct: purchased New England Biolabs Inc (Ipswich, Mass.)
T2 sequence (Q8WTS6 1-366): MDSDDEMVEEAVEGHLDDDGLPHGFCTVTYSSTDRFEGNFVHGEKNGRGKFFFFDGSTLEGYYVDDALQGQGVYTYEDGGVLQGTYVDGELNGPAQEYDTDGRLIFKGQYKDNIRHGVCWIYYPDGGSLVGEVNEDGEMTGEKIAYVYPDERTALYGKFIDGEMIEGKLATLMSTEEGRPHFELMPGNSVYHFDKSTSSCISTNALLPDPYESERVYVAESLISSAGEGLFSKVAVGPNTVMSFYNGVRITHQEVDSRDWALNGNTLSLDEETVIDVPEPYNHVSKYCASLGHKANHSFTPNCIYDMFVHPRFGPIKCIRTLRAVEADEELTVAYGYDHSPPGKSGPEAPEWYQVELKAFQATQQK
Procedure: For HTS experiments, samples were dispensed into a Grenier 781077 384-well flat bottom black plate using an Eppendorf Repeater […] pipetter to dispense reaction components. Z' scores were calculated from 16 well replicates in the 384-well plate. For the HTS SET7/9 activity assay, 3 μL of H3 peptide or water was added to 9 μL of reaction solution containing SET7/9 MTase, SAM, and NEB HMT Reaction Buffer in each well. Final concentrations are: 0.25 U/10 μL SET7/9, 25 μM SAM, 50 μM H3 peptide and 1×NEB HMT Reaction Buffer (50 mM Tris, pH 9.0, 5 mM MgCl2, and 4 mM DTT). After 30 min incubation at 37° C., to initiate the fluorescent biosensor reaction, 18 μL of biosensor reaction solution containing renatured RNA, DFHBI, and buffer was added to each well. […] In vitro fluorescence assays were conducted as described above. For the HTS SET7/9 inhibition assay, 4.5 μL of sinefungin or water was added to 8 μL of reaction solution containing SET7/9 MTase, and NEB HMT Reaction Buffer in each well. After 15 minutes incubation at 37° C., methylation reaction was initiated by adding 2.5 μL solution containing both SAM and H3 peptide. Final concentrations are: 0.25 U/10 μL SET7/9, 25 μM SAM, 50 μM H3 peptide, 300 μM sinefungin and 1×NEB HMT Reaction Buffer (50 mM Tris, pH 9.0, 5 mM MgCl2, and 4 mM DTT). After 30 min incubation at 37° C., to initiate the fluorescent biosensor reaction, 15 μL of biosensor reaction solution containing renatured RNA, DFHBI, and buffer was added to each well. […] In vitro fluorescence assays were conducted as described above.

[7] = 3 mM magnesium (FIG. 22), read-out: in vitro measured binding affinity for SAH

Nc1ncnc2c1ncn2[C@@H]1O[C@H](C[C@@H](N)CC[C@H](N)C(=O)O)[C@@H](O)[C@H]1O [Sinefungin]
IC50 ([1]; initial SAM concentration 40 μM): 42 ± 16 µM
IC50 ([1]; initial SAM concentration of 25 μM): 26 ± 5 µM

CC1=N/C(=C\c2cc(F)c(O)c(F)c2)C(=O)N1C [DFHBI, (Z)-4-(3,5-difluoro-4-hydroxybenzylidene)-1,2-dimethyl-1H-imidazol-5(4H)-one]
Emission maximum [2]: 502 ± 1 nm
Excitation Maximum [2]: 428 ± 1 nm
Extinction coefficient [2]: 30018 M^−1- cm^−1
Fluorescence quantum yield ([2]; 30° C., 10 mM MgCl2): 0.00072 ± 0.00013
Emission maximum [3]: 489 nm
Excitation Maximum [3]: 423 nm
Extinction coefficient [3]: 30100 M^−1- cm^−1
Fluorescence quantum yield [3]: 0.0007

B1: Spinach2: fluorophore-binding RNA aptamer, SEQ ID NO: 92 (nucleic acid)
chain: GATGTAACTGAATGAAATGGTGAAGGACGGGTCCAGTAGGCTGCTTCGGCAGCCTACTTGTTGAGTAGAGTGTGAGCTCCGTAACTAGTTACATC
modifications: expressed or natural sequence
cellular fluorescence activation over background (E. coli BL21* cells): 34 fold
fluorescence in the presence of ATP [4]: showed the same effect

B2: Mpe1-5: SAH biosensor, SEQ ID NO: 39 (nucleic acid)
chain: ACTTTCGAGGAGCGTTGCAACTCCCTTGTTGAGTAGAGTGTGAGCTCCGTAACTAGTTACATCGCAAGATGTAACTGAATGAAATGGTGAAGGACGGGTCCAGGGAGCCAGGCTCGAAAGTCATCCCCCGATGCAACGGCGCTCACCCGCA
Kd [5, 7]: 0.019 µM
Kd ([5]; 10 mM Mg^2+, 37° C., read-out: Kd for SAH): 0.075 ± 0.007 µM
fluorescence response to SAM ([4]; 10 μM of SAM): slight response to SAM
fluorescence response to SAH at low magnesium [4]: high fluorescence response to SAH
fluorescence in the presence of ATP [4]: lower fluorescence
fluorescence turn-on [4]: ~4 fold
fold change in fluorescence between wild-type and MTAN knockout strain 2 [6]: 2.0 ×

B3: Nmo1-4: SAH biosensor, SEQ ID NO: 65 (Table 2 prints 64) (nucleic acid)
chain: CTCGCCGAGGAGCGCTGCAACAGGTTGTTGAGTAGAGTGTGAGCTCCGTAACTAGTTACATCGCAAGATGTAACTGAATGAAATGGTGAAGGACGGGTCCACCTGCCAGGCTCGGCGATTATCGGGACCTTTAAACCAACGGCGCTCGGTTCAG
Kd [5, 7]: 0.75 µM
Z′ score, inhibitor screen (SET7/9): 0.75
fluorescence response to SAH at low magnesium [4]: high fluorescence response to SAH
fluorescence turn-on [4]: ~9 fold
fold change in fluorescence between wild-type and MTAN knockout strain 2 [6]: 4.8 ×
